“And” between values parts separate entries of the source, which are not always exact repeats. Equal entries are not always repeated. Numbered stars: 1 amine (or outer) side, 2 acyl side, 3 side chain; on linkers, the order of the positions; unused ones are H or OH. Bridge positions count the residues as written; N and C are the ends. Square brackets hold non-standard residues; d marks the D form. Primed or numbered codes have the meaning given here. * marks the point of attachment. tMeBn(LuDOTA-AET) = 1,3,5-trimethylbenzylidene (from 1,3,5-tris(bromomethyl)benzene) bridge with two thioethers to the Cys, its third CH2 carries AET (2-aminoethanethiol, attached through S), whose amine is acylated by DOTA complexing lutet, O=C([O-])CN1CCN(CC(=O)[O-])CCN(CC(=O)NCCSCc2cc(C[*:1])cc(C[*:2])c2)CCN(CC(=O)[O-])CC1.[Lu+3]; tMeBn(DOTA-PP) = 1,3,5-trimethylbenzylidene, two thioethers to Cys, third CH2 bound to one N of piperazine whose other N bears DOTA, O=C(O)CN1CCN(CC(=O)O)CCN(CC(=O)N2CCN(Cc3cc(C[*:1])cc(C[*:2])c3)CC2)CCN(CC(=O)O)CC1; Ttds″ = 1,13-diamino-4,7,10-trioxatridecan-succinamic acid spacer, O=C(CCC(=O)[*:2])NCCCOCCOCCOCCCN[*:1]; Ttds(6) = 1,13-Diamino-4,7,10-trioxatridecan-succinamic acid, O=C(CCC(=O)[*:2])NCCCOCCOCCOCCCN[*:1]; 3MeBn = 3-Methylbenzylidene (m-xylylene thioether bridge from α,α′-dibromo-m-xylene); Opc = (S)-N-(pyrazinylcarbonyl)-ornithine, O=C(NCCC[C@H](N[*:1])C(=O)[*:2])c1cnccn1; N4Ac = 6-Carboxy-1,4,8,11-tetraazaundecane, an N4-chelator, NCCNCC(CNCCN)C(=O)*; Pro(4,4-F2) = O=C(O)[C@@H]1CC(F)(F)CN1; mXylylene = c1cc(C[*:1])cc(C[*:2])c1; NMeF = CN[C@@H](Cc1ccccc1)C(=O)O; Tic = O=C(O)[C@@H]1Cc2ccccc2CN1; AF488 = Alexa Fluor 488 label; Orn = NCCC[C@H](N)C(=O)O; Hexanoyl = CCCCCC(=O)*; GABA = NCCCC(=O)O
B1: Hex-[C(tMeBn(GaNOPO-AET))-PPTEFC]-OH (peptide)
peptide: Hexanoyl-CPPTEFC-OH
modifications: linker 1-7 via tMeBn(GaNOPO-AET); also: gallium-NOPO chelator-AET arm on the linker
notes: also called 3BP-4816
B2: nBu-CAyl-[C(tMeBn(NODAGA-AET))-PPTEFC]-OH (peptide)
peptide: CPPTEFC
modifications: N-term nBu-CAyl-; Cys1 and Cys7 thioether-bridged by tMeBn(NODAGA-AET); C-term -OH
notes: also called 3BP-4724
B3: Hex-[Cys(tMeBn(DOTA-PP))-Pro-Gln-Phe-Pro-Thr-Cys]-Asp-NH2 (peptide)
peptide: Hexanoyl-CPQFPTCD-NH2
modifications: linker 1-7 via tMeBn(DOTA-PP)
SMILES: CCCCCC(=O)N[C@H]1CSCc2cc(cc(CN3CCN(C(=O)CN4CCN(CC(=O)O)CCN(CC(=O)O)CCN(CC(=O)O)CC4)CC3)c2)CSC[C@@H](C(=O)N[C@@H](CC(=O)O)C(N)=O)NC(=O)[C@H]([C@@H](C)O)NC(=O)[C@@H]2CCCN2C(=O)[C@H](Cc2ccccc2)NC(=O)[C@H](CCC(N)=O)NC(=O)[C@@H]2CCCN2C1=O
notes: also called 3BP-3857
B4: Hex-[Cys(3MeBn)-Pro-4Dfp-Thr-Glu-Phe-Cys]-NH2 (peptide)
peptide: Hexanoyl-CP[Pro(4,4-F2)]TEFC-NH2
modifications: linker 1-7 via mXylylene
SMILES: CCCCCC(=O)N[C@H]1CSCc2cccc(c2)CSC[C@@H](C(N)=O)NC(=O)[C@H](Cc2ccccc2)NC(=O)[C@H](CCC(=O)O)NC(=O)[C@H]([C@@H](C)O)NC(=O)[C@@H]2CC(F)(F)CN2C(=O)[C@@H]2CCCN2C1=O
notes: also called 3BP-3365
B5: Hex-[Cys(3MeBn)-Pro-Pro-Opc-Glu-Phe-Cys]-NH2 (peptide)
peptide: Hexanoyl-CPP[Opc]EFC-NH2
modifications: linker 1-7 via mXylylene
SMILES: CCCCCC(=O)N[C@H]1CSCc2cccc(c2)CSC[C@@H](C(N)=O)NC(=O)[C@H](Cc2ccccc2)NC(=O)[C@H](CCC(=O)O)NC(=O)[C@H](CCCNC(=O)c2cnccn2)NC(=O)[C@@H]2CCCN2C(=O)[C@@H]2CCCN2C1=O
notes: also called 3BP-3355
B6: Hex-[Cys(3MeBn)-Pro-Pro-Orn(Ac)-Glu-Phe-Cys]-NH2 (peptide)
peptide: Hexanoyl-CPP[Orn](Ac)EFC-NH2
modifications: linker 1-7 via mXylylene
SMILES: CCCCCC(=O)N[C@H]1CSCc2cccc(c2)CSC[C@@H](C(N)=O)NC(=O)[C@H](Cc2ccccc2)NC(=O)[C@H](CCC(=O)O)NC(=O)[C@H](CCCNC(C)=O)NC(=O)[C@@H]2CCCN2C(=O)[C@@H]2CCCN2C1=O
notes: also called 3BP-3372
B7: Hex-[Cys(3MeBn)-Pro-Pro-Thr-Glu-Tic-Cys]-NH2 (peptide)
peptide: Hexanoyl-CPPTE[Tic]C-NH2
modifications: linker 1-7 via mXylylene
SMILES: CCCCCC(=O)N[C@H]1CSCc2cccc(c2)CSC[C@@H](C(N)=O)NC(=O)[C@@H]2Cc3ccccc3CN2C(=O)[C@H](CCC(=O)O)NC(=O)[C@H]([C@@H](C)O)NC(=O)[C@@H]2CCCN2C(=O)[C@@H]2CCCN2C1=O
notes: also called 3BP-3359
B8: Hex-[Cys(3MeBn)-Pro-Pro-Thr-Glu-Nmf-Cys]-NH2 (peptide)
peptide: Hexanoyl-CPPTE[NMeF]C-NH2
modifications: linker 1-7 via mXylylene
SMILES: CCCCCC(=O)N[C@H]1CSCc2cccc(c2)CSC[C@@H](C(N)=O)NC(=O)[C@H](Cc2ccccc2)N(C)C(=O)[C@H](CCC(=O)O)NC(=O)[C@H]([C@@H](C)O)NC(=O)[C@@H]2CCCN2C(=O)[C@@H]2CCCN2C1=O
notes: also called 3BP-3358

How the values were obtained:
[1] = target: T1, human fibroblast activation protein (FAP) on WI-38 fibroblasts (human, UniProt Q12884 1-760); experiment: competitive FACS, WI-38 cells, Cy5-labeled peptide as competitor; C = pIC50 6.1 to 7.0
T1 construct: FAP-expressing human WI-38 fibroblasts (ECACC)

[2] = target: Recombinant human FAP (R&D systems, #3715-SE) (human, UniProt Q12884 26-760); experiment: cell-based or functional assay
[3] = target: T2, human fibroblast activating protein (FAP) on WI-38 fibroblasts (human, UniProt Q12884 1-760); experiment: competitive FACS on WI-38 cells vs 3 nM Cy5-labeled peptide; pIC50 category B = 7.1-8.0
T2 construct: FAP-expressing human WI-38 fibroblasts (ECACC)

[4] = target: T2, human fibroblast activating protein …; experiment: competitive FACS on WI-38 cells vs 3 nM Cy5-labeled peptide; pIC50 category A = >8.0
[5] = target: Recombinant human FAP (R&D systems, #3715-SE) (human, UniProt Q12884 26-760); experiment: cell-based or functional assay; remark: listed apart in the source
[6] = target: T3, fibroblast activation protein (FAP) on FAP-expressing human WI-38 fibroblasts (human, UniProt Q12884 1-760); experiment: competitive FACS, WI-38 cells, vs Cy5 tracer m3; D = pIC50 <=6.0
T3 construct: also called human FAP

[7] = target: T1, human fibroblast activation protein …; experiment: competitive FACS, WI-38 cells, Cy5-labeled peptide as competitor; B = pIC50 7.1 to 8.0

| pIC50 Category (Activity) [5] | pIC50 Category (FACS) [6] | other results | Binder |
| --- | --- | --- | --- |
| – | – | pIC50 [1]: 6.1 to 7 pic50; pIC50 Category (Activity) [2]: ≤ 6 pIC50 | N4Ac-[Ttds(6)]ECPPTEFC-OH (linker 3-9 via 3MeBn, also called 3BP-4233) [N4Ac-Ttds-Glu-[Cys-(3MeBn)-Pro-Pro-Thr-Glu-Phe-Cys]-OH] |
| – | – | pIC50 [3]: 7.1 to 8 pic50 | B1 |
| – | – | pIC50 [4]: > 8 pic50 | B2 |
| – | – | pIC50 [3]: 7.1 to 8 pic50 | Hexanoyl-CPPTEFC-OH (linker 1-7 via tMeBn(NOPO-AET), also called 3BP-4818) [Hex-[C(tMeBn(NOPO-AET))-PPTEFC]-OH] |
| – | – | pIC50 [3]: 7.1 to 8 pic50 | CPPTEFC (N-term Hex-; Cys1 and Cys7 thioether-bridged by tMeBn(NODAGA-AET); C-term -OH, also called 3BP-4695) [Hex-[C(tMeBn(NODAGA-AET))-PPTEFC]-OH] |
| – | – | pIC50 [1]: 6.1 to 7 pic50 | B3 |
| 6.1 pIC50 and 7 pIC50 | ≤ 6 pIC50 | – | B4 |
| 6.1 pIC50 and 7 pIC50 | ≤ 6 pIC50 | – | B5 |
| 6.1 pIC50 and 7 pIC50 | ≤ 6 pIC50 | – | B6 |
| 6.1 pIC50 and 7 pIC50 | ≤ 6 pIC50 | – | B7 |
| – | – | pIC50 Category (Activity) [2]: > 8 pIC50; pIC50 [7]: 7.1 to 8 pic50 | Hexanoyl-CPPTQFCD[GABA]R[Ttds″][Ttds″][Ttds″]K(AF488)-NH2 (linker 1-7 via tMeBn(LuDOTA-AET); also: Lu complexed by DOTA, also called 3BP-4373) [Hex-[Cys(tMeBn(LuDOTA-AET))-Pro-Pro-Thr-Gln-Phe-Cys]-Asp-Gab-Arg-Ttds-Ttds-Ttds-Lys(AF488)-NH2] |
| 6.1 pIC50 and 7 pIC50 | ≤ 6 pIC50 | – | B8 |

— patent publication US20230212549A1 (3B PHARMACEUTICALS, published 2023)
